Data from patent US20240401063, “Aptamer for DKK1 and Use Thereof” (APTACURE THERAPEUTICS LIMITED, published 2024).

T1: DKK1 (Dickkopf-1), full-length (Homo sapiens, UniProt O94907 SEQ:32-266)
T1 sequence: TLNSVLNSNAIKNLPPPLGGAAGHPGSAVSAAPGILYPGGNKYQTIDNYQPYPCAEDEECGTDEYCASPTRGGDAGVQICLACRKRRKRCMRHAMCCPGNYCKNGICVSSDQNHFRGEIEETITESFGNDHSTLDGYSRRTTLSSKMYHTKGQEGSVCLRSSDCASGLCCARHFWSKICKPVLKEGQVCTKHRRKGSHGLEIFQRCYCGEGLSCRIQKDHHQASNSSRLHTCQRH

B1: D30-10 (ssDNA)
DNA: TCCTCTTCCTTTGGCTAGGTTGGTTAGGTTGGTGC
B2: D30-19 (ssDNA)
DNA: TACCTTCTGCTCGATGTGTTCAGTGTGTTGTGTGT
B3: D30-18 (ssDNA)
DNA: TCTGCTTTCACGTACTAGGTTGGTTAGGTTGGTGT
B4: D30-12 (ssDNA)
DNA: TCGTGCTTGATTCCATGCTTGGCCGCCTTCTCGTG
B5: D30-16 (ssDNA)
DNA: ATGTAAATCGATTCCTCTGGCCGCATCGCGCTTTA
B6: D30-15 (ssDNA)
DNA: AATTTCGATAGTCCATGTGTTCAGTGCCTGTGTGT
B7: D30-3 (ssDNA)
DNA: CTTCTTGTCCCTCGATGTGTTCAGTGTTTGTGTGT
B8: D30-9 (ssDNA)
DNA: CTGTTCTAACGTGGTTGACCCCCCTTTGCTTTGAC
B9: D30-14 (ssDNA)
DNA: ATGCCCCTCCTCTGTTGAACTGTTTACCCCTTTGA
B10: D30-7 (ssDNA)
DNA: TGTAGATAGAGGGGTTGGTGTGGTTGGCGCTATCC
B11: D30-1 (ssDNA)
DNA: ATGTCCATTTGCGAGTAGGTGTTTGAGTGAGGTGA
B12: D30-13 (ssDNA)
DNA: TATGGTTTCCCTACATGTGTTCAGTGTTTGTGTGT
B13: D30-4 (ssDNA)
DNA: TGCTGAACTTTACGTGATTCTAGTCGCTGACCGCG
B14: D30-8 (ssDNA)
DNA: TGCATCTTCCTTCTTCGATTCTATGCTCGGCCGCG
B15: D30-2 (ssDNA)
DNA: CATTGTCTCAGCGCATGTGTTCAGTTCTTGTGTGT
B16: D30-17 (ssDNA)
DNA: CAGTCTTAGTGCTCATGTGTTCAGTGTTTGTGTGT
B17: Aptdkk-7 (ssDNA)
DNA: CGTACGGTCGACGCTAGCAGCCCCCTTCCTTTCTTCCTCGACCTCCCTCCGCAGGATCCGAGCTCCACGTG
B18: Aptdkk-11 (ssDNA)
DNA: CGTACGGTCGACGCTAGCCATCCAGCTCCCTTTATTCCCTCTGTACCCTCCTGGGATCCGAGCTCCACGTG
B19: Aptdkk-15 (ssDNA)
DNA: CGTACGGTCGACGCTAGCACGTTCAGATACCTTTTTTCCCCTTTGTTCTGCCGGGATCCGAGCTCCACGTG
B20: Aptdkk-4 (ssDNA)
DNA: CGTACGGTCGACGCTAGCTGCACGCTTTTCCCTCCTTTTCTCGTCTGACCGCGGGATCCGAGCTCCACGTG
B21: Aptdkk-16 (ssDNA)
DNA: CGTACGGTCGACGCTAGCTACACGCCATCGGTGCCCTTTTCTCTTCTTGTCTGGGATCCGAGCTCCACGTG
B22: Aptdkk-10 (ssDNA)
DNA: CGTACGGTCGACGCTAGCACTCTCCACGTTTTTCCACCTCCTTCCTCCTTTGCGGATCCGAGCTCCACGTG
B23: Aptdkk-2 (ssDNA)
DNA: CGTACGGTCGACGCTAGCTGGTGTTGGGGTGGGTTGGTGGGTATTTTGGCGGTGGATCCGAGCTCCACGTG
B24: Aptdkk-14 (ssDNA)
DNA: CGTACGGTCGACGCTAGCCTGTGCAGTTGGTTGGTTATGGTTGGGACTGTCAGGATCCGAGCTCCACGTG
B25: Aptdkk-17 (ssDNA)
DNA: CGTACGGTCGACGCTAGCTACTTCTCCACGTCTCTTTCCCTGTCCCCTTCGCAGGATCCGAGCTCCACGTG
B26: Aptdkk-8 (ssDNA)
DNA: CGTACGGTCGACGCTAGCTGCCACCCCTGTTTTCCACATTTTCCTCGACCGCGGGATCCGAGCTCCACGTG
B27: Aptdkk-18 (ssDNA)
DNA: CGTACGGTCGACGCTAGCTCCACCCAATTCTCTTCCCGTCTTTCCTGCACATGGGATCCGAGCTCCACGTG
B28: Aptdkk-9 (ssDNA)
DNA: CGTACGGTCGACGCTAGCTACACCCCTTCCTGTTCTATTCTTCCTGCCTTGCGGGATCCGAGCTCCACGTG
B29: Aptdkk-12 (ssDNA)
DNA: CGTACGGTCGACGCTAGCTCCCCTCATAATCCGACTTTTTCCCTCCCCCTCCCGGATCCGAGCTCCACGTG
B30: Aptdkk-6 (ssDNA)
DNA: CGTACGGTCGACGCTAGCCCGGTTGCAATGGTTGGGGTGGTTGGTTTTGCATGGGATCCGAGCTCCACGTG
B31: Aptdkk-13 (ssDNA)
DNA: CGTACGGTCGACGCTAGCTGGTGTGGGGGTGGGTGGTGGGTTGTATCGTTTGAGGATCCGAGCTCCACGTG
B32: Aptdkk-19 (ssDNA)
DNA: CGTACGGTCGACGCTAGCATAGGTTGGGTAGGTTGGTTGCTTTTTTTGTCGCGGGATCCGAGCTCCACGTG
B33: Aptdkk-1 (ssDNA)
DNA: CGTACGGTCGACGCTAGCTGTGGTTATGGGGTTGGTGGGTGGGTTCTTACGGAGGATCCGAGCTCCACGTG
B34: Apt5-1-47 (ssDNA)
DNA: CGTACGGTCGACGCTAGCTGGTGGTTGGGGTGGGTGGTGGTTGTTCG
B35: Apt5-1-50 (ssDNA)
DNA: CGTACGGTCGACGCTAGCTGGTGGTTGGGGTGGGTGGTGGTTGTTCGTGG

What follows are binders tested against T1, DKK1 (Dickkopf-1), full-length (assay: BLI). Details: tags: His6.
Protocol: The specificity against DKK-1 was determined with 1 μM of each aptamer/RS for 19 potential sequences with the highest occurrence rate in the 30th round by ELONA. […] Next, the binding affinity against DKK1 was determined for candidate aptamers by BLL. DKK1 protein was applied at gradient concentrations of 0 nM, 3.125 nM, 6.25 nM, 12.5 nM, 25 nM, 50 nM, 100 nM, and 200 nM.
With B1 the Kd was 1.97 nM. With B2 the Kd was 20.1 nM. B3 gave a Kd of 20.8 nM. B4 was tested, and the Kd was 5.99 nM. B5 was tested, and the Kd was 1.9 nM. Binder B6 has a Kd of 2.92 nM. B7 was tested, and the Kd was 2.64 nM. B8 was tested, and the Kd was 2.42 nM. Binder B9 has a Kd of 2.54 nM. With B10 the Kd was 5.5 nM. B11 gave a Kd of 5.34 nM. For B12, the Kd was 1.67 nM. Work on B13 yielded a Kd of 23 nM. Work on B14 yielded a Kd of 3.19 nM. B15 gave a Kd of 2.89 nM. For B16, the Kd was 20.1 nM.

These binders were tested against T1, DKK1 (Dickkopf-1), full-length (assay: ELONA; specificity High at 1 uM; Kd not given). Details: tags: His6; label: biotin.
Protocol: (§1) Enzyme linked oligonucleotide assay (ELONA): 160 ng DKK1 per well and negative target were coated in a 96-well microtiter plate by incubating at 4° C. overnight through hydrophobic interaction. Non-binding sites in wells were blocked with bull serum albumin (BSA) at room temperature for 1 hour, and then washed with DNA-binding buffer 4 times for 5 minutes each. The biotinylated aptamer candidates/RS with an appropriate concentration were added to each well and incubated at room temperature for 45 minutes with continuous gentle shaking. After binding, the plate was washed with washing buffer 4 times for 5 minutes each to remove non-specific and weakly binding sequences. 100 μl streptavidin-horseradish peroxidase (HRP) (1:10000 dilute into PBST+0.1% BSA) was added to each well, and incubated for 30 minutes, and washed for 4 times with the binding buffer. 50 μl 3,3′,5,5′-tetramethylbenzidine (TMB) as a HRP substrate was added to each well and incubated for 20 minutes. 50 μl 2M H₂SO₄ was added to terminate the reaction. The absorbance at 450 nm was measured with a microplate reader (Molecular Device i3x). Data was analyzed with Origin software. A binding curve was generated and KD was calculated with a non-linear curve fitting model logistic.
The specificity of 1 μM of each adapter/RS against DKK-1 was determined for 20 potential sequences with the highest occurrence rate (Table 4) by ELONA and the absorbance at 450 nm was detected.
B17: binds. B18: binds. B19: binds. B20: binds. B21: binds. B22: binds.

Same assay, conditions: tags: His6; label: biotin; G-rich, predicted G4
B23: binds. B24: binds.

What follows are binders tested against T1, DKK1 (Dickkopf-1), full-length (assay: ELONA; room temperature). Details: tags: His6; label: biotin.
Protocol: as §1
Aptamer candidates with significant specificity and Candidate 3 as a negative control were used to determine the binding affinity against DKK1. Candidates 1, 2, 4, and 14 had concentrations of (0, 62.5 nM, 125 nM, 250 nM, 500 nM, 1000 nM, 2000 nM, and 4000 nM), Candidates 7, 10, 15, and 16 had concentrations of (0, 23.44 nM, 46.86 nM, 93.75 nM, 187.5 nM, 375 nM, 750 nM, and 1500 nM), and other candidates had concentrations of (0, 0.18 nM, 0.74 nM, 2.96 nM, 11.84 nM, 47.35 nM, 189.39 nM, and 757.58 nM). […] Six candidates (aptdkk-5, 13, 20, 19, 6, and 1) were rich in G. The other five sequences (aptdkk-9, 18, 12, 17, and 8) were not rich in G.
B25 gave a Kd of 50.4 nM. With B26 the Kd was 104 nM. Work on B27 yielded a Kd of 8.2 nM. In the case of B28, the Kd is reported as 4.2 nM. B29 showed a Kd of 38.2 nM.

Same assay, conditions: tags: His6; label: biotin; G-rich, predicted G4
With B30 the Kd was 29.4 nM. With B31 the Kd was 1.1 nM. Binder B32 has a Kd of 9.7 nM. B33 showed a Kd of 344 nM.

What follows are binders tested against T1, DKK1 (Dickkopf-1), full-length (assay: ELONA; 1 nM: no or slight difference from aptdkk5). Details: tags: His6; label: biotin.
Protocol: as §1
The specificity of 100 nM/i nM of each aptamer/RS against DKK-1 was determined for 24 truncated sequences of aptdkk5 and original aptdkk5 (Table 6) by ELONA and the absorbance at 450 nm was detected. When the concentration was 100 nM, there was no significant difference or slight difference in the absorbance between apt5-1-38, apt5-1-35, apt5-1-62, or apt5-1-59 and the original aptdkk5 (FIG. 8a). When the concentration was 1 nM, there was no significant difference or slight difference in the absorbance between apt5-1-50, apt5-1-47, apt5-1-44, apt5-1-41, apt5-1-38, apt5-1-35, apt5-1-65, apt5-1-62, apt5-1-59, or apt5-1-53 and the original aptdkk5 (FIG. 8b). After the specificity and length of these aptamers were considered, apt5-1-44, apt5-1-41, apt5-1-38, and apt5-1-35 were selected to determine the binding affinity against DKK1.
B34: binds. B35: binds.
